In paper PMC2323298:

Molecular target: Mouse monoclonal antibody 1F9 (isotype IgG2b with a Kappa light chain)
Assay: phage ELISA
Conditions: immobilized 1F9; phage dilution 5 (first point of the series); duplicate; parent: est. 0.88; read off a plot

Substance	response (absorbance 450 nm)
3D7 AMA1 domain I expressed on M13 phage F201L	0.53
3D7 AMA1 domain I expressed on M13 phage N228K	0.38
3D7 AMA1 domain I expressed on M13 phage D204N	0.06
3D7 AMA1 domain I expressed on M13 phage F201V	0.06
3D7 AMA1 domain I expressed on M13 phage H200L	0.17
